{
  "source": "paper PMC3101628",
  "about": "(Nature structural & molecular biology, 2011)",
  "assay_in_all_cases": "SEC",
  "key": {"[1]": {"target": "the molecule itself"}, "[2]": {"target": "the molecule itself", "remark": "listed apart in the source"}, "[3]": {"target": "the molecule itself", "remark": "listed apart in the source"}},
  "note": "Several values for one entry are separate records, joined by “and”; a condition that tells them apart may be missing. Equal values may be shown once. Read-outs that look alike come from different tables or passages of the source.",
  "data": [
    {"protein": "human ribonucleotide reductase RR1 (hRRM1), wild type (enzyme, UniProt P23921 1-792, looked up) MHVIKRDGRQERVMFDKITSRIQKLCYGLNMDFVDPAQITMKVIQGLYSGVTTVELDTLAAETAATLTTKHPDYAILAARIAVSNLHKETKKVFSDVMEDLYNYINPHNGKHSPMVAKSTLDIVLANKDRLNSAIIYDRDFSYNYFGFKTLERSYLLKINGKVAERPQHMLMRVSVGIHKEDIDAAIETYNLLSERWFTHASPTLFNAGTNRPQLSSCFLLSMKDDSIEGIYDTLKQCALISKSAGGIGVAVSCIRATGSYIAGTNGNSNGLVPMLRVYNNTARYVDQGGNKRPGAFAIYLEPWHLDIFEFLDLKKNTGKEEQRARDLFFALWIPDLFMKRVETNQDWSLMCPNECPGLDEVWGEEFEKLYASYEKQGRVRKVVKAQQLWYAIIESQTETGTPYMLYKDSCNRKSNQQNLGTIKCSNLCTEIVEYTSKDEVAVCNLASLALNMYVTSEHTYDFKKLAEVTKVVVRNLNKIIDINYYPVPEACLSNKRHRPIGIGVQGLADAFILMRYPFESAEAQLLNKQIFETIYYGALEASCDLAKEQGPYETYEGSPVSKGILQYDMWNVTPTDLWDWKVLKEKIAKYGIRNSLLIAPMPTASTAQILGNNESIEPYTSNIYTRRVLSGEFQIVNPHLLKDLTERGLWHEEMKNQIIACNGSIQSIPEIPDDLKQLYKTVWEISQKTVLKMAAERGAFIDQSQSLNIHIAEPNYGKLTSMHFYGWKQGLKTGMYYLRTRPAANPIQFTLNKEKLKDKEKVSKEEEEKERNTAAMVCSLENRDECLMCGS", "values": [
      {"measurement": "stoichiometry N", "setting": "[1]", "value": 2},
      {"measurement": "stoichiometry N", "setting": "[2]", "value": 6}
    ]},
    {"protein": "hRRM1 H2E (enzyme, human, UniProt P23921 1-792, looked up) MEVIKRDGRQERVMFDKITSRIQKLCYGLNMDFVDPAQITMKVIQGLYSGVTTVELDTLAAETAATLTTKHPDYAILAARIAVSNLHKETKKVFSDVMEDLYNYINPHNGKHSPMVAKSTLDIVLANKDRLNSAIIYDRDFSYNYFGFKTLERSYLLKINGKVAERPQHMLMRVSVGIHKEDIDAAIETYNLLSERWFTHASPTLFNAGTNRPQLSSCFLLSMKDDSIEGIYDTLKQCALISKSAGGIGVAVSCIRATGSYIAGTNGNSNGLVPMLRVYNNTARYVDQGGNKRPGAFAIYLEPWHLDIFEFLDLKKNTGKEEQRARDLFFALWIPDLFMKRVETNQDWSLMCPNECPGLDEVWGEEFEKLYASYEKQGRVRKVVKAQQLWYAIIESQTETGTPYMLYKDSCNRKSNQQNLGTIKCSNLCTEIVEYTSKDEVAVCNLASLALNMYVTSEHTYDFKKLAEVTKVVVRNLNKIIDINYYPVPEACLSNKRHRPIGIGVQGLADAFILMRYPFESAEAQLLNKQIFETIYYGALEASCDLAKEQGPYETYEGSPVSKGILQYDMWNVTPTDLWDWKVLKEKIAKYGIRNSLLIAPMPTASTAQILGNNESIEPYTSNIYTRRVLSGEFQIVNPHLLKDLTERGLWHEEMKNQIIACNGSIQSIPEIPDDLKQLYKTVWEISQKTVLKMAAERGAFIDQSQSLNIHIAEPNYGKLTSMHFYGWKQGLKTGMYYLRTRPAANPIQFTLNKEKLKDKEKVSKEEEEKERNTAAMVCSLENRDECLMCGS", "values": [
      {"measurement": "stoichiometry N", "setting": "[2]", "value": "2 and 6"}
    ]},
    {"protein": "hRRM1 with the first 74 residues deleted (t-hRRM1) (domain or fragment, human, UniProt P23921 75-792, looked up) AILAARIAVSNLHKETKKVFSDVMEDLYNYINPHNGKHSPMVAKSTLDIVLANKDRLNSAIIYDRDFSYNYFGFKTLERSYLLKINGKVAERPQHMLMRVSVGIHKEDIDAAIETYNLLSERWFTHASPTLFNAGTNRPQLSSCFLLSMKDDSIEGIYDTLKQCALISKSAGGIGVAVSCIRATGSYIAGTNGNSNGLVPMLRVYNNTARYVDQGGNKRPGAFAIYLEPWHLDIFEFLDLKKNTGKEEQRARDLFFALWIPDLFMKRVETNQDWSLMCPNECPGLDEVWGEEFEKLYASYEKQGRVRKVVKAQQLWYAIIESQTETGTPYMLYKDSCNRKSNQQNLGTIKCSNLCTEIVEYTSKDEVAVCNLASLALNMYVTSEHTYDFKKLAEVTKVVVRNLNKIIDINYYPVPEACLSNKRHRPIGIGVQGLADAFILMRYPFESAEAQLLNKQIFETIYYGALEASCDLAKEQGPYETYEGSPVSKGILQYDMWNVTPTDLWDWKVLKEKIAKYGIRNSLLIAPMPTASTAQILGNNESIEPYTSNIYTRRVLSGEFQIVNPHLLKDLTERGLWHEEMKNQIIACNGSIQSIPEIPDDLKQLYKTVWEISQKTVLKMAAERGAFIDQSQSLNIHIAEPNYGKLTSMHFYGWKQGLKTGMYYLRTRPAANPIQFTLNKEKLKDKEKVSKEEEEKERNTAAMVCSLENRDECLMCGS", "values": [
      {"measurement": "stoichiometry N", "setting": "[3]", "value": 2}
    ]}
  ]
}
